Results taken from patent US8431396B2, “Anti-angiogenic peptides” (The Cleveland Clinic Foundation, priority 2003, dated 2013).
Substitutions are numbered along the chain they refer to.

T1: VEGF (Homo sapiens, UniProt P15692)
T1 construct: purchased Genentech (gift, not bought)
T1 sequence (P15692 27-191 isoform P15692-4): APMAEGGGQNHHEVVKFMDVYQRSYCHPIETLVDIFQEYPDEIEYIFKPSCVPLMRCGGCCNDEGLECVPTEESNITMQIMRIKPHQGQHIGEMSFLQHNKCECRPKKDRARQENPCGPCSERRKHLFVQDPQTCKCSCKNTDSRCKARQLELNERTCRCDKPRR

B1: recombinant human TIMP3 (tissue inhibitor of metalloproteinases-3) (other)
chain: CTCSPSHPQDAFCNSDIVIRAKVVGKKLVKEGPFGTLVYTIKQMKMYRGFTKMPHVQYIHTEASESLCGLKLEVNKYQYLLTGRVYDGKMYTGLCNFVERWDQLTLSQRKGLNYRYHLGCNCKIKSCYYLPCFVTSKNECLWTDMLSNFGYPGYQSKHYACIRQKGGYCSWYRGWAPPDKSIINATDP
notes: Radio-iodinated in some assays; also called rTIMP3; recombinant TIMP3
B2: recombinant human VEGF165 (ligand, UniProt P15692-4 27-191, looked up)
chain: T1 sequence (P15692 27-191 isoform P15692-4)
B3: TIMP3Cys1-Ser: recombinant TIMP3 protein with reduced metalloproteinase-inhibitory activity, expressed from adenovirus Rad66 (protein)
chain: B1 chain with C1S
B4: C-terminal TIMP3: chimera of residues 1-126 of TIMP-2 and residues 122-188 of TIMP3 representing the isolated C-terminal domain of TIMP3 (protein, listed as Homo sapiens)
chain: CSCSPVHPQQAFCNADVVIRAKAVSEKEVDSGNDIYGNPIKRIQYEIKQIKMFKGPEKDIEFIYTAPSSAVCGVSLDVGGKKEYLIAGKAEGDGKMHITLCDFIVPWDTLSTTQKKSLNHRYQMGCCKIKSCYYLPCFVTSKNECLWTDMLSNFGYPGYQSKHYACIRQKGGYCSWYRGWAPPDKSIINATDP

How the values were obtained:
KDR = target: T2, KDR (Homo sapiens, UniProt P35968); test: [125I]VEGF binding to the surface of PAE-KDR cells; conditions: same conditions as TIMP3
T2 construct: To determine whether these receptor isoforms represent full-length VEGFR-2; expressed in transfected cells; host or cells: porcine aortic endothelial (PAE) cells
Experimental: Radioligand binding is expressed as percent binding and is the mean±s.e.m. of triplicate samples. […] All values are expressed as mean±s.e.m. of triplicate samples. […] Binding is expressed as mean±s.e.m.
Data were analyzed by Scatchard plot analyses.

KDR (VEGFR2) = KDR (VEGFR2) (Homo sapiens, UniProt P35968); test: ELISA of sKDR binding to VEGF-coated plates
Experimental: In the assay, 96 well immunoplates were coated with VEG (80 ng/ml) as per standard procedures.

[1] = tested on: Choroidal Neovascularization (CNV); test: Laser-induced choroidal neovascularization (CNV) mouse model of AMD; assay type: in vivo, C57BL6 mice; conditions: single intravitreal injection on day 3; examined 14 days after laser
Experimental: We next tested the ability of intravitreal TIMP-3 tail and loop 6 peptide to inhibit Choroidal Neovascularization (CNV), a mouse model of age-related macular degeneration (AMD). C57BL6 mice (n=5) in each each group were lasered to induce CNV. On day 3 intravitreal injections [single dose] of control N terminal peptide (116) or TIMP-3 peptides (Tail peptide (SEQ ID NO: 13), Loop 6 (SEQ ID NO: 12), and Loop 5 (SEQ ID NO: 11) were administered. Animals were sacrificed at 14 days following laser and whole mount retinas were examined for evidence of CNV following injection of fluorescein dextran marker.

[2] = tested on: chick embryo chorioallantoic membrane (CAM); test: Chick embryo chorioallantoic membrane (CAM) assay of VEGF-mediated angiogenesis; assay type: in vivo, chicken
From the text: The CAM assay was done as described with slight modifications. Fertilized 3-day-old white Leghorn eggs (Sunnyside, Beaver Dam, Wis.) were cracked and embryos with the yolk intact were placed in glass-bottomed Petri dishes. […] Angiogenesis was reported as the angiogenic index (mean number of tertiary branchpoints from experimental conditions minus the mean number of branchpoints from buffer controls with no angiogenic stimulator).

PAE-KDR cells = test: Endothelial cell migration toward VEGF (modified Boyden chamber); assay type: cell-based, porcine; conditions: added exogenously; VEGF165 10 ng/ml
Experimental: (B) Comparison of the effects of rTIMP3, rTIMP1 and BB3103 on VEGF165-induced migration of PAE-KDR cells. […] In all migration experiments, migrating cell number is expressed as mean±s.e.m. of quadruplicate samples. All experiments were done in triplicate. Open symbols, KDR-vector; closed symbols, KDR-TIMP3.*, P<0.01; **, P<0.05.
(§1) A modified Boyden chamber assay for migration and proliferation assays were carried out as described.

VEGF = target: T1, VEGF; test: Solid-phase direct binding of [125I]VEGF to wells coated with TIMPs
endothelial cells = test: Competitive displacement of [125I]TIMP3 from the surface of endothelial cells; assay type: binding; conditions: unlabeled VEGF 2 μg/ml, TIMP3 10 μg/ml
Experimental: Immunoprecipitation of cell lysates with antibodies specific for TIMP3 was followed by immunoblotting with antibodies specific for KDR (top). As a control for KDR receptor, cell lysates were immunoprecipitated with anti-bodies specific for KDR and probed with antibodies specific for KDR Immunoprecipitation with antibodies specific for KDR and immunoblotting with antibodies specific for TIMP3 (bottom) were carried out on PAE-KDR cells exposed to recombinant TIMP3 or PAE-KDR-vector and PAE-KDR cells overexpressing TIMP3, to confirm the interaction. […] Competition with unlabeled TIMP3 was carried out to ensure specificity. […] (E) In vivo interaction of KDR and TIMP3 in human placenta. Immunoprecipitation using antibodies specific TIMP3 (top) and KDR (bottom) was followed by immunoblotting with antibodies specific for KDR (top) and TIMP3 (bottom).

PAEKDR cells [3] = test: VEGF-stimulated proliferation ([3H]thymidine) of transfected PAEKDR cells; assay type: cell-based, porcine; conditions: mock cells
Experimental: Cells were seeded at a density of 5000 cells/well in 24 well culture plates and cultured for 24 h in growth medium. […] High molecular weight DNA was precipitated using 5% trichloroacetic acid at 4° C. for 30 min After two washes with ice-cold H2O, 3H radioactivity was solubilized in 1 N NaOH for 20 min at room temperature, acidified by addition of 2 N HCl, and measured using a liquid scintillation counter. Each sample was assayed in triplicate and the assays were repeated at least twice.

PAEKDR cells [4] = test: VEGF-stimulated migration (modified Boyden chamber) of transfected PAEKDR cells; assay type: cell-based, porcine; conditions: mock cells
Experimental: A modified Boyden chamber assay was carried out as described previously 34. Briefly, 8.0 μm pore PVPF polycarbonate membranes were pre-coated with 100 μg/ml collagen type I in 0.2 N acetic acid (Cohesion technologies, INC. Pala Alto, Calif.). […] Chamber was then incubated for 4 hrs at 37° C. in a 5% CO2 humidified incubator. Cells remaining on the top of the filter were removed. Cells on the bottom surface of the filter were fixed, stained and mounted. The number of migrating cells per well was counted microscopically.

VEGFR1 (FLT-1) = VEGFR1 (FLT-1) (Homo sapiens, UniProt P17948); conditions: read-out: Kd of VEGF binding to VEGFR1; cited from earlier work
[5] = target: T3, KDR (VEGFR2) on the surface of PAE-KDR cells (human, UniProt P35968 20-1356); test: inhibition of [125I]VEGF binding to PAE-KDR cells by pretreatment with TIMP3
T3 construct: whole, on cells; also called KDR-vector

[6] = target: T4, soluble KDR-IgG (receptor IgG chimeric protein) (UniProt P35968 20-764, limits assumed); test: solid-phase assay: displacement of [125I]VEGF165 from soluble KDR-IgG by TIMP3
T4 construct: Bought from R&D Systems; also called KDR-Fc; sKDR; not shown: IgG Fc portion
Experimental: Soluble KDR-Fc or FLT1-Fc (50 ng) was added to each well. […] After washing, the bound protein was solubilized with 1% SDS and 1 M NaOH and radioactivity measured in a γ-counter.

recombinant human TIMP1 = target: T5, recombinant human TIMP1 (human, UniProt P01033 24-207); test: solid-phase binding of [125I]VEGF to wells coated with TIMP1
T5 construct: also called rTIMP1

recombinant human TIMP2 = target: T6, recombinant human TIMP2 (human, UniProt P16035 27-220); test: solid-phase binding of [125I]VEGF to wells coated with TIMP2
T6 construct: also called rTIMP2

[7] = target: B1; test: solid-phase binding of [125I]VEGF to wells coated with TIMP3
[8] = tested on: MS1 mouse endothelial cells; test: MS1 endothelial cells infected with adenovirus expressing WT-TIMP3 or TIMP3Cys1-Ser: apoptosis and [3H]thymidine incorporation; assay type: cell-based
Experimental: (§2) MS1 mouse endothelial cells\(American Type Culture Collection, Manassas, Va.) were cultured until 80% confluent and infected with adenovirus as described. Cells were infected at 50 or 200 plaque-forming units per cell for 18 h. Medium was then replaced with fresh complete medium and left for 48 h until analysis.
as §1

MS1 endothelial cells = test: 125I-VEGF165 binding to adenovirus-infected MS1 endothelial cells; set-up: species or system mouse; conditions: cells infected with adenovirus expressing TIMP3Cys1-Ser
Experimental: Radioligand binding is expressed as percent binding and is the mean±s.e.m. of triplicate samples. […] All values are expressed as mean±s.e.m. of triplicate samples. […] Binding is expressed as mean±s.e.m. Data is shown as percent binding of triplicate samples, with binding to PAE-KDR cells in the absence of any inhibitor as 100%. *, P<0.01. […] P<0.01.
as §2

MMPs = test: Reverse zymography of ECM extracts (MMP-inhibitory activity); assay type: biochemical; conditions: MS1 cells infected with Rad-TIMP3Cys1-Ser vs wild-type
Experimental: Conditioned medium, cell lysates and ECM fractions from transfected cells were prepared. Equal amounts of protein were loaded onto a 12% gel with 1 mg/ml gelatin plus RPE cell-conditioned medium, as a source of MMPs, for reverse zymography and processed as described.

Chain of KDR (VEGFR2) (P35968 20-764 limits assumed): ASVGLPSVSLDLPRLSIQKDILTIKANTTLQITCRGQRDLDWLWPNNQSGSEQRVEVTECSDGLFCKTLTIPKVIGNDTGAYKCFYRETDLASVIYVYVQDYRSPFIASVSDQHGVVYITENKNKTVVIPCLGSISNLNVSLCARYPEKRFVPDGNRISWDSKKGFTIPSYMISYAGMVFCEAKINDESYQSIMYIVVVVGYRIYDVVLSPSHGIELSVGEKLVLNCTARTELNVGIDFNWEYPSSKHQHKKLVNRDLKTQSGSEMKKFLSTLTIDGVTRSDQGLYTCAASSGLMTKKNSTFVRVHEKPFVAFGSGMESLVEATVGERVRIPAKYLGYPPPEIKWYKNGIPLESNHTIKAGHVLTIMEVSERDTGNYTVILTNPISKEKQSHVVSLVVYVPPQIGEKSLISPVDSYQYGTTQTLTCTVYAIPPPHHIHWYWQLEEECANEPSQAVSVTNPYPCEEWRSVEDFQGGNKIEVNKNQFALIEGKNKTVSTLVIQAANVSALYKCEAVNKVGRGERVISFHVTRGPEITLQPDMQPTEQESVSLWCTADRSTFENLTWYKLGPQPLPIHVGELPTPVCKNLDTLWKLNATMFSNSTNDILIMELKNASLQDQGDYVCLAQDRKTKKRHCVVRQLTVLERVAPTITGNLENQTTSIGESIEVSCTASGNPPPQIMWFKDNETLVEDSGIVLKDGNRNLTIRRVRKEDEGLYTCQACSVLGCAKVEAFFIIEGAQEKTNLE
T2 sequence (P35968 20-1356): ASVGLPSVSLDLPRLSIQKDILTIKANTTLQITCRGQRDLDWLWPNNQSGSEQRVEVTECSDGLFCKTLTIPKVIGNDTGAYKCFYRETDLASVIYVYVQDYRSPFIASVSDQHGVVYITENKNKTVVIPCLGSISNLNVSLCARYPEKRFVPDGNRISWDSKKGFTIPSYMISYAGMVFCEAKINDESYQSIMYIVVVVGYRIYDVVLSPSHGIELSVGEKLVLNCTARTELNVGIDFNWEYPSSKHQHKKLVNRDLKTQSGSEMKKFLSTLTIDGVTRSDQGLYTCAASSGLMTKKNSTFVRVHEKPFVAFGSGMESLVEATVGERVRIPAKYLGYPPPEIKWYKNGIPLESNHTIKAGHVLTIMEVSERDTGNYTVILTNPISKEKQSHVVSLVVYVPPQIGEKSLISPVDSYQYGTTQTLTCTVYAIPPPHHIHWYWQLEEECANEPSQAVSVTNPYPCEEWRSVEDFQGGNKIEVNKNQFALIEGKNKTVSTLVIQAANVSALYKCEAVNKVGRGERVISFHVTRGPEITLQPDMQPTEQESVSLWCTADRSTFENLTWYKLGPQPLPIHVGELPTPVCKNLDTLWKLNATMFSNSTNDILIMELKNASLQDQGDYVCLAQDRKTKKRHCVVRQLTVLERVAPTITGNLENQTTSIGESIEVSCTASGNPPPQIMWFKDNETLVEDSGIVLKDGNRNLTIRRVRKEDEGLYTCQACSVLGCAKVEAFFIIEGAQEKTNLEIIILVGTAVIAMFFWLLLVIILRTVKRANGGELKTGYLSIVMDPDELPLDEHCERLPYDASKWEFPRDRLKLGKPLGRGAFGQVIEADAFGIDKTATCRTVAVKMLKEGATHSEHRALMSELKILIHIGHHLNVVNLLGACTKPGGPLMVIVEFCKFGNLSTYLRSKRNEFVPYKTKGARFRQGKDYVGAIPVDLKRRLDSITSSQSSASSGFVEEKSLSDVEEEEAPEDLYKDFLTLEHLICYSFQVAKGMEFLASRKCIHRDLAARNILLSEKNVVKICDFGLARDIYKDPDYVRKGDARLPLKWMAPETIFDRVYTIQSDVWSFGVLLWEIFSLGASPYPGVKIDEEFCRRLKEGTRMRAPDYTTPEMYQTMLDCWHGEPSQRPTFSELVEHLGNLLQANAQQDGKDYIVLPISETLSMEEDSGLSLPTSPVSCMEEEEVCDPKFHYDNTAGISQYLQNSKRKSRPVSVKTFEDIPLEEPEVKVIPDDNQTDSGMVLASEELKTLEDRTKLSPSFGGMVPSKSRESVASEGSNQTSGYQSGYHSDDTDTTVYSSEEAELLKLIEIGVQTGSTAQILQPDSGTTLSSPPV
T4 sequence (P35968 20-764 limits assumed, change not shown): as the sequence (P35968 20-764 limits assumed) above
T3 sequence (P35968 20-1356): as the sequence (P35968 20-1356) above
T5 sequence (P01033 24-207 limits assumed): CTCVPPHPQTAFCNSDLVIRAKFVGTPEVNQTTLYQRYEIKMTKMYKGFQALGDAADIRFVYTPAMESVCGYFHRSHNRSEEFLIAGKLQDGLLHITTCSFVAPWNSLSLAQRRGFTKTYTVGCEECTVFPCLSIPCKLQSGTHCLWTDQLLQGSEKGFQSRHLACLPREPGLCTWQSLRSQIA
Chain of VEGFR1 (FLT-1) (P17948 27-1338, species assumed): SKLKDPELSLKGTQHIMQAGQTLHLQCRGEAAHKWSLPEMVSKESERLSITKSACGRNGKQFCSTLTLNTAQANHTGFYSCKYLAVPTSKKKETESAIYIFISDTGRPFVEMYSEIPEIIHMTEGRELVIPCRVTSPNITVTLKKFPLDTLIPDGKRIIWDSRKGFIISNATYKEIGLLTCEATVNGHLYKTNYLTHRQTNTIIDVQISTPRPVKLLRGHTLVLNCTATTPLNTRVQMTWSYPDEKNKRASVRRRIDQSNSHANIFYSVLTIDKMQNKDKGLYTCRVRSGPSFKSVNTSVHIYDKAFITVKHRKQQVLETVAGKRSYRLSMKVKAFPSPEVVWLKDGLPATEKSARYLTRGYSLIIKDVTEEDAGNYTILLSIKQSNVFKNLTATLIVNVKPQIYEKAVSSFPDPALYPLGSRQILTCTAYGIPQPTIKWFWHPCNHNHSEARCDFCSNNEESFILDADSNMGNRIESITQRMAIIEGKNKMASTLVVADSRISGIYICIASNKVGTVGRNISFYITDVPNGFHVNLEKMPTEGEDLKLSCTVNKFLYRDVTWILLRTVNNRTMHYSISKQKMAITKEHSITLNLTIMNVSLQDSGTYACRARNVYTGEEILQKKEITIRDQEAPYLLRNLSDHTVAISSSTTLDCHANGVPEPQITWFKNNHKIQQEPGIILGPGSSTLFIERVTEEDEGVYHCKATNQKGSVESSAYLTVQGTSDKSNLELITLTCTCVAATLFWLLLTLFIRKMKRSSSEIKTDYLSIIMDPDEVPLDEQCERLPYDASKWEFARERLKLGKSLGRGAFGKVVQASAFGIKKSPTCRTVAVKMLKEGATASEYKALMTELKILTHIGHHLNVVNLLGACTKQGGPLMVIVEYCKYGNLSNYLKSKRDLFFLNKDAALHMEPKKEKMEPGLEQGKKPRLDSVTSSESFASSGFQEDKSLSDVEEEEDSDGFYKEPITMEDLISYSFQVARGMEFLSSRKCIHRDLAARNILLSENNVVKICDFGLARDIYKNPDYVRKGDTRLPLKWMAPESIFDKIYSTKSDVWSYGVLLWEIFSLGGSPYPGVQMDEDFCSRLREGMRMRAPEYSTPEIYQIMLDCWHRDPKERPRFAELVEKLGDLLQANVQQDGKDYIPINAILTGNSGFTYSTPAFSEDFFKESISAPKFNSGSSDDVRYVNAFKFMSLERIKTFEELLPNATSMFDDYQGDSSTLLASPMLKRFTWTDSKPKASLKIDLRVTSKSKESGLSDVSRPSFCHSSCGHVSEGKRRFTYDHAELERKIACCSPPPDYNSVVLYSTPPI

## O=C(NO)[C@@H](Cc1ccccc1)NS(=O)(=O)c1ccc(-c2ccccc2)cc1 [MMP-2 and MMP-9 inhibitor, (2R)-[(4-biphenylylsulfonyl)amino]-N-hydroxy-3-phenylpropionamide]
KDR
  inhibition of binding of VEGF to PAE-KDR cells: could not inhibit binding of VEGF

## GYCSWYRGWAPPDKSIINATDP (listed as Homo sapiens) [tail peptide, synthetic peptide from the tail portion of the C-terminal region of TIMP-3]
KDR (VEGFR2); 0.03 μM and 0.1 μM
  inhibition of VEGF binding to KDR at lower doses, comparison of peptides: inhibited VEGF binding better than the Loop 6 peptide and the Loop 5 peptide
KDR (VEGFR2); 3 μM
  inhibition of VEGF binding to KDR: inhibit VEGF binding
  inhibition of VEGF binding to KDR compared with recombinant TIMP-3: same levels as recombinant TIMP-3
[1]
  inhibition of CNV (fluorescein dextran, whole mount retina): inhibit CNV

## KNECLWTDMLSNFGYPGYQSKHYACIRQKG (listed as Homo sapiens) [loop 6 peptide, synthetic peptide from loop-6 of the C-terminal region of TIMP-3]
KDR (VEGFR2); 3 μM
  inhibition of VEGF binding to KDR: inhibit VEGF binding
[1]
  inhibition of CNV (fluorescein dextran, whole mount retina): inhibit CNV

## TIMP1: recombinant human TIMP1 expressed in NSO myeloma cells [reference compound]
[2]; VEGF plus inhibitor
  angiogenic index (tertiary branchpoints of capillaries): 172±8
PAE-KDR cells
  inhibition of endothelial cell migration toward VEGF: not observed
KDR
  inhibition of binding of VEGF to PAE-KDR cells: could not inhibit the binding of VEGF to KDR
VEGF
  direct binding of [125I]VEGF to coated TIMP: did not detect direct binding

## VEGF [reference compound]
[2]; VEGF alone
  angiogenic index (tertiary branchpoints of capillaries): 190±5
Endothelial cells
  inhibition of binding of labeled TIMP3 to the surface of endothelial cells: could inhibit the binding of labeled TIMP3
PAEKDR cells [3]
  VEGF concentration of maximum proliferative activity: 15 ng/mL
PAEKDR cells [4]
  VEGF concentration of maximum migratory effect: 50 ng/mL
VEGFR1 (FLT-1)
  Kd: 0.015 to 0.1 nM

## B1
[5]
  IC50: 3.3 to 4.5 mg/L
[6]
  IC50: 2.9 mg/L

## B2
Recombinant human TIMP1
  binding result: no binding
Recombinant human TIMP2
  binding result: no binding
[7]
  binding result: no binding

## B3
[8]; MS1 cells infected with wild-type or mutant virus
  apoptosis after adenovirus infection: No apoptosis was observed
[8]; cells infected with Rad-TIMP3Cys1-Ser
  proliferative response to VEGF ([3H]thymidine incorporation): still inhibited in their proliferative response to VEGF
MS1 endothelial cells
  binding of VEGF to cell surfaces: reduced binding of VEGF to its cell surfaces
MMPs
  metalloproteinase-inhibitory activity (reverse zymography of ECM extracts): reduced metalloproteinase-inhibitory activity

## B4
KDR (VEGFR2); preliminary studies
  inhibition of VEGF binding to KDR by TIMP3 domains: inhibits binding of VEGF to KDR
